T1: Biotin PSGL-1(42-62) P55A peptide (C-terminal Lys-biotin)
T1 peptide: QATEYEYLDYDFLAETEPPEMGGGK

T2: Biotin PSGL-1(42-62) D52A peptide (C-terminal Lys-biotin)
T2 peptide: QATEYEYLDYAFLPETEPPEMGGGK

T3: Recombinant human PSGL-1(ECD)-hFc1 (R&D Systems, Cat. 3345-PS) (human, UniProt Q14242 42-305)
T3 construct: Bought; Gln42-Val295 counted on AAC50061; also called PSGL-1-Fc; PSGL-1-hFc1 chimera; not shown: human IgG1 Fc, Pro100-Lys330
T3 sequence: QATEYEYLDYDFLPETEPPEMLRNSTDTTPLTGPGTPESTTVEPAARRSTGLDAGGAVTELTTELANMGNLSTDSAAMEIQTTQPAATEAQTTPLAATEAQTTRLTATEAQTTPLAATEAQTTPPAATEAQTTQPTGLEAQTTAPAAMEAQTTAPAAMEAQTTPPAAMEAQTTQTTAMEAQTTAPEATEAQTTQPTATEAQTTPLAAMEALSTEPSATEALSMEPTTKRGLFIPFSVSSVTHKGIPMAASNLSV

T4: PSGL-1(42-62) N-terminal peptide, sulfation state not told at the place (human, not fully specified; sulfation of Y46, Y48, Y51 not stated for these table columns)
T4 peptide: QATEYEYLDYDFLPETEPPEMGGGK


Experiments:
[1] = target: T1, Biotin PSGL-1(42-62) P55A peptide; experiment: ELISA; against wild-type PSGL-1 42-62
[2] = target: T1, Biotin PSGL-1(42-62) P55A peptide; experiment: ELISA, streptavidin-bound Ala peptide
[3] = target: T2, Biotin PSGL-1(42-62) D52A peptide; experiment: ELISA, streptavidin-bound Ala peptide
[4] = target: T2, Biotin PSGL-1(42-62) D52A peptide; experiment: ELISA; against wild-type PSGL-1 42-62
[5] = target: T3, Recombinant human PSGL-1(ECD)-hFc1 (R&D …); experiment: Octet tandem; competitor 16E17
Procedure: (§1) Antibody binning was performed by ForteBio Octet® using a tandem assay format, with anti-human IgG biosensor-immobilized PSGL-1(ECD)-hFc1 protein, binding of competitor mAb followed by analyte antibody. As competition controls, the same antibody was competed against itself, and mAb competition was performed bidirectionally.
(§2) Antibody binning by tandem octet was performed by immobilizing 10 ug/mL PSGL-1(ECD)-hFc1 (R&D Systems, Cat. #3345-PS) in PBS, pH 7.4, onto anti-human IgG capture biosensors (ForteBio, Cat. #18-5060), binding of 100 nM competitor antibody for 300 sec., followed by binding of 100 nM of analyte mAb for 300 s in kinetic buffer (0.1% BSA in PBS containing 0.02% tween 20 and 0.05% sodium azide, pH 7.4). Synagis (Johnson et al. (1997) J. Infect. Dis. 176:1215-1224) served as a negative control mAb for competition. An Fc quench step (0.25 mg/mL human IgG Fcl; BioXcell, Cat. #BE0096, in kinetic buffer) was included when human mAbs were tested to prevent high background from the antibodies binding to the anti-human IgG biosensor. Biosensor regeneration buffer consisted of 10 mM glycine, pH 2.0.

[6] = target: PSGL-1(ECD)-hFc1 S116A protein (Sino Biological) (human); experiment: ELISA; against WT PSGL-1(ECD)-hFc1
Procedure: (§3) A typical ELISA experiment involved binding of a single concentration or serially diluted mAb in assay buffer (3% BSA in PBS containing 0.05% Tween®20, pH 7.4) onto BSA blocked high binding microtiter plate half-wells (Corning Cat. #3690), which contained PSGL-1 protein or streptavidin-immobilized biotin peptide. After incubation for 45 min. at 37° C., the plate was washed 3 times with wash buffer (PBS containing 0.05% Tween®20, pH 7.4), and an appropriate HRP-conjugated secondary antibody added (25 ul/well) (HRP goat anti-mouse or anti-human IgG). After 45 min. incubation at 37° C., the plate was washed and antibody bound to plate-immobilized target was determined at A450 nm using HRP substrate (3,3′5,5′-tetramethylbenzidine (TMB)). For each antibody, duplicate values were averaged and assay background subtracted.

[7] = target: PSGL-1(ECD)-hFc1 I121A protein (Sino Biological) (human); experiment: ELISA; against WT PSGL-1(ECD)-hFc1
Procedure: as §3

[8] = target: PSGL-1(ECD)-hFc1 M119A protein (Sino Biological) (human); experiment: ELISA; against WT PSGL-1(ECD)-hFc1
Procedure: as §3

[9] = target: T3, Recombinant human PSGL-1(ECD)-hFc1 (R&D …); experiment: Octet tandem; competitor 19N05
Procedure: as §1, §2

[10] = target: PSGL-1(ECD)-hFc1 S116A protein (Sino Biological) (human); experiment: ELISA, plate-bound peptide or protein
Procedure: as §3

[11] = target: PSGL-1(ECD)-hFc1 I121A protein (Sino Biological) (human); experiment: ELISA, plate-bound peptide or protein
Procedure: as §3

[12] = target: PSGL-1(ECD)-hFc1 M119A protein (Sino Biological) (human); experiment: ELISA, plate-bound peptide or protein
Procedure: as §3

[13] = target: T3, Recombinant human PSGL-1(ECD)-hFc1 (R&D …); experiment: Octet tandem; competitor 15A7
Procedure: as §1, §2

[14] = target: T4, PSGL-1(42-62) N-terminal peptide, …; experiment: binding to PSGL-1 42-62

| EC50Ala/EC50 wt [1] [fold] | EC50 [2] [nM] | binding result [3] | EC50Ala/EC50 wt [4] [fold] | EC50 [3] [nM] | % binding of analyte mAb [5] [%] | EC50/EC50WTprot [6] [fold] | EC50/EC50WTprot [7] [fold] | EC50/EC50WTprot [8] [fold] | % binding of analyte mAb [9] [%] | EC50 [10] [nM] | EC50 [11] [nM] | EC50 [12] [nM] | % binding of analyte mAb [13] [%] | binding result [14] | Binder |
| --- | --- | --- | --- | --- | --- | --- | --- | --- | --- | --- | --- | --- | --- | --- | --- |
| 9.5 | 1.8 | no binding |  |  |  |  |  |  |  |  |  |  |  |  | 43B6 (antibody, V domains shown, Control anti-PSGL-1 mAb, recombinant; only variable domains given; also called 43B3) VH: EVQLQQSGPDLVKPGALVKISCKASGYSFTAYYIHWVKQSHGKSLEWIGRVNPNTGGTSYNPKFKGKAILNVDKSSSTAYMELRSLTSEDSAVYYCARSGSPYYRYDDWGQGTTLTVSS VL: ENVLTQSPAIMSASPGEKVTMTCRASSTVNSTYLHWFQQKSGASPKLWIYGSSNLASGVPARFSGSGSGTSYSLTISSVEAEDAATYYCQQYSGYPLTFGAGTTLELK |
| 68.4 | 8.21 |  | 15.9 | 3.18 |  |  |  |  |  |  |  |  |  |  | 19I01 (antibody, V domains shown, From mouse immunisation; only variable domains given; also called 19101) VH: EVQLVESGGGLVKPGGSRKLSCAASGFTFSDYGMHWVRQAPEKGLEWVAYISSGSSTIYYADTVKGRFTISRDNAKNTLFLQMTSLRSEDTAMYYCARGVDGYWGQGTTLTVSS VL: DVVMTQTPLSLPVSLGDQASISCRSSQSLVHSNGNTYLHWYLQKPGQSPKFLIYKVSNRFSGVPDRFSGSGSGTDFTLKISRVEAEDLGVYFCSQTTHVPLTFGAGTKLELK |
|  |  |  |  |  | 16.3 | 1.45 | 2.8 | 1.58 | 5.1 | 0.8 | 1.54 | 0.87 | 21 | no binding | 16E17 (antibody, V domains shown, From mouse immunisation; only variable domains given) VH: QIQLVQSGPELKKPGETVKISCKASGYAFTTYGMSWVKQAPGKGLKWMGWINTYSGVPKYADDFKGRFAFSLETSASTAYLHINNLKNEDTATYFCGRHYYGSSYFDYWGQGTTLTVSS VL: not shown |
|  |  |  |  |  | 61.9 | 1.44 | 1.42 | 1.26 | 44.3 | 0.98 | 0.97 | 0.86 | 28.3 | no binding | 19L04 (antibody, IgG4, V domains shown, From mouse immunisation; only variable domains given) VH: QIQLVQSGPELKKPGETVKISCKASGYTFTTYGMSWVKQAPGKGLKWMGWINTYSGVPTYADDFKGRFAFSLETSASTAYLQINNLKIEDTATYFCARHYYGSHYFDYWGQGTTLTVSS VL: DIMMTQSPSSLAMSVGQKVTLRCKSSQSLLNSSNQKNYLAWYQQKPGQSPKLLVYFASTRESGVPVRFIGSGSGTDFTLTISSMQAEDLADYFCQQHYFSPLTFGAGTKLELK |
|  |  |  |  |  | 29.1 | 1.43 | 1.39 | 1.34 | 69.4 | 0.55 | 0.53 | 0.51 | 36 | no binding | 19N05 (antibody, V domains shown, From mouse immunisation; only variable domains given) VH: QIQLVQSGPELKKPGETVKISCKASGYTFTTYGMSWVKQAPGKGLKWMGWINTYSGVPTFADDFKGRFAFSLETSASTAYLQINNLKNEDTATFFCARNYYGNHYFDYWGQGTTLTVSS VL: DVQITQSPSYLAASPGETISINCRASNNINKYLAWYQEKPGKTNKLLIYSGSTLQSGIPSRFSGSGSGTDFTLTISSLEPEDFAMYHCQQHNYYPLTFGAGTKLELK |
|  |  |  | > 100 | > 10 |  |  |  |  |  |  |  |  |  |  | 18F02 (antibody, V domains shown, From mouse immunisation; only variable domains given) VH: QVQLQQPGAELVKPGASVKLSCKASGYTFTSYWMHWVKQRPGQGLEWIGMIHPNSGRTNYNEKFKSKATLTVDKSSSTAYMQLSSLTSEDSAVYYCARSDYWGQGTTLTVSS VL: DIVMTQAAFSNPVTLGTSASISCRSSKSLLHSDGITYLYWFLQRPGQSPQLLIYRMSNLASGVPDRFSGSGSGTDFTLRISRVEAEDVGVYYCAQMLEFPRTFGGGTKLEIK |
|  |  |  | 21 | 19.9 |  |  |  |  |  |  |  |  |  |  | 16L15 (antibody, V domains shown, From mouse immunisation; only variable domains given) VH: DVKLVESGGGLVKLGGSLKLSCAASGFTFSSYYMSWVRQTPEKRLEWVATISNGGGSTYYPDSVKDRFTISRDNAKNTLYLQMSSLNSEDTAVYYCAKPLYYSNPWFAYWGQGTLVTVSA VL: DVLLTQTPLSLPVSLGDQASISCRSSQSIVHSNGNTYLEWYLQKPGQSPKLLIYKVSNRFSGVPDRFSGSGSGTDFTLKISRVEAEDLGVYYCFQGSHVPRTFGGGTKLEIK |
| > 100 | > 10 | no binding |  |  |  |  |  |  |  |  |  |  |  |  | 9F9 (antibody, V domains shown, Control anti-PSGL-1 mAb, recombinant; only variable domains given; also called 9F6) VH: EVQLVETGGGLVQPKGSLKLSCAASGFTFNTNAMNWVRQAPGKGLEWVARIRSKSNNYATYYADSVKDRFTISRDDTQSMIYLQMNNLKTEDTGMYYCVRGGSYWYFDVWGAGTTVTVSS VL: DVLMTQTPLSLPVSLGDQASISCRSSQSIVNSNGNTYLEWYLQKPGQSPKLLIYKVSNRFSGVPDRFSGSGSGTDFTLKISRVEAEDLGVYYCFQGSHVPWTFGGGTKLEIK |
|  |  |  |  |  | 11.7 | 1.02 | 0.89 | 0.81 | 0 | 0.58 | 0.51 | 0.46 | 23.9 | no binding | 18K07 (antibody, V domains shown, From mouse immunisation; only variable domains given) VH: QIQLVQSGPELKKPGETVKISCEASGYTFTTYGMNWVKQAPGKGLKWMGWINTYSGVPTYADDFQGRFAFSVETSATTAYLQINNLKNEDAATYFCARSDDTYYGFAYWGQGTLVTVSA VL: not shown |

From US20220396632A1 (VERSEAU THERAPEUTICS, published 2022)
